Laboratory results from article doi:10.1101/2025.07.25.666786.

Legend:
[1] = target: CrAPE1 C128S mutant, recombinant soluble region of the DUF2854 of APE1 from Chlamydomonas reinhardtii (Chlamydomonas reinhardtii); test: SEC-MALS
[2] = target: Plastid Copper Chaperone 1 (PCC1) from Chlamydomonas reinhardtii, recombinant, produced in the presence of Cu (Chlamydomonas reinhardtii)
[3] = target: CrAPE1 C128S mutant, recombinant soluble region of the DUF2854 of APE1 from Chlamydomonas reinhardtii (Chlamydomonas reinhardtii); test: MST

## CrAPE1 C128S mutant, recombinant soluble region of the DUF2854 of APE1 from Chlamydomonas reinhardtii (domain or fragment)
[1]
  stoichiometry N: 2

## Plastid Copper Chaperone 1 (PCC1) from Chlamydomonas reinhardtii, recombinant, produced in the presence of Cu (natural protein)
[2]
  stoichiometry N: 2
[3]
  Kd: 0.0386 µM
